Entries after “also recorded” stand apart in the source; their conditions may differ.
Legend:
[1] = systemic administration; non-small-cell lung cancer patients; Phase I; cited from earlier work
[2] = system: NCI-H446 human cancer cell line; experiment: Cytotoxic activity (cell proliferation inhibition rate, xCELLigence) with human PBMCs; type: cell-based; details: human PBMCs as effector cells; NCI-H446 target cells; 72 hours
Protocol: Using a syringe preloaded with 100 μL of 1,000 units/mL heparin solution (Novo Heparin for injection, 5000 units, Novo Nordisk), 50 mL of peripheral blood was collected from each healthy volunteer (adult individual). This peripheral blood was diluted two-fold in PBS(−), divided into four aliquots, and added into a Leucosep tube for lymphocyte separation (Cat. No. 227290, Greiner Bio-One) that had been loaded with 15 mL of Ficoll-Paque PLUS and subjected to centrifugation in advance. This separation tube was centrifuged (at 2150 rpm for ten minutes at room temperature), and then the mononuclear cell fraction was collected. The cells in the mononuclear cell fraction were washed once with the Dulbecco's Modified Eagle's Medium containing 10% FBS (manufactured by SIGMA, hereinafter referred to as 10% FBS/D-MEM), and then prepared to have a cell density of 4×10^6 cells/mL using 10% FBS/D-MEM. The cell suspension prepared this way was used as the human PBMC solution in the experiment below.
Cytotoxic activity was assessed by the rate of cell proliferation inhibition using the xCELLigence Real-Time Cell Analyzer (Roche Diagnostics). […]
Cytotoxic activity was measured by the method described in Reference Example 1-3-2.
CDR and FR were determined according to the Kabat definition (Kabat numbering). […]

catumaxomab
maximum tolerable dose [1]: 5 g/body

B1: GPC3_ERY27_hCE115: humanized anti-human CD3ε chain and anti-human GPC3 bispecific antibody (SEQ ID NOs: 54, 55, and 56) (protein)
chain 1: QVQLVQSGAEVKKPGASVKVSCKASGYTFTDYEMHWIRQPPGQGLEWIGAIDPKTGDTAYSQKFKGRVTLTADKSTSTAYMELSSLTSEDTAVYYCTRFYSYTYWGQGTLVTVSSASTKGPSVFPLAPCSRSTSESTAALGCLVKDYFPEPVTVSWNSGALTSGVHTFPAVLQSSGLYSLSSVVTVPSSSLGTKTYTCNVDHKPSNTKVDKRVESKYGPPCPPCPAPEFRGGPKVFLFPPKPKDTLMISRTPEVTCVVVDVSQEDPEVQFNWYVDGVEVHNAKTKPREEQFASTYRVVSVLTVLHQDWLNGKEYKCKVSNKGLPSSIEKTISKAKGQPREPQVYTLPPSQKEMTKNQVSLTCLVKGFYPSDIAVEWESNGQPENNYKTTPPVLDSDGSFFLYSRLTVDKSRWQEGNVFSCSVMHEALHNRYTQKSLSLSLHHHHHHHH
chain 2: QVQLVESGGGVVQPGRSLRLSCAASGFTFSNAWMHWVRQAPGKGLEWVAQIKAKSNNYATYYAESVKGRFTISRDDSKNSLYLQMNSLKTEDTAVYYCRYVHYGAYYGVDAWGQGTTVTVSSASTKGPSVFPLAPCSRSTSESTAALGCLVKDYFPEPVTVSWNSGALTSGVHTFPAVLQSSGLYSLSSVVTVPSSSLGTKTYTCNVDHKPSNTKVDKRVESKYGPPCPPCPAPEFRGGPKVFLFPPKPKDTLMISRTPEVTCVVVDVSQEDPEVQFNWYVDGVEVHNAKTKPREEQFASTYRVVSVLTVLHQDWLNGKEYKCKVSNKGLPSSIEKTISKAKGQPREPQVYTLPPSQEEMTKNQVSLTCLVKGFYPSDIAVEWESNGQPENNYKTTPPVLDSDGSFFLYSRLTVDKSRWQEGNVFSCSVMHEALHNHYTQESLSLSLDYKDDDDK
chain 3: DIVMTQSPLSLPVTPGEPASISCRSSQSLVHSNRNTYLHWYQQKPGQAPRLLIYKVSNRFSGVPDRFSGSGSGTDFTLKISRVEAEDVGVYYCGQGTQVPYTFGQGTKLEIKRTVAAPSVFIFPPSDEQLKSGTASVVCLLNNFYPREAKVQWKVDNALQSGNSQESVTEQDSKDSTYSLSSTLTLSKADYEKHKVYACEVTHQGLSSPVTKSFNRGEC
modifications: An artificially generated sequence
cytotoxic activity (T-cell-dependent cellular cytotoxicity) [2]: reduction of the activity; also recorded: lower

B2: GPC3_ERY22_rCE115: heterodimeric bispecific antibody of GL4-ERY22_Hk, H0000-ERY22_L, rCE115H-ERY22_Hh, rCE115L-k0 (SEQ ID NOs: 47-50) (antibody)
heavy 1: DIVMTQSPLSLPVTPGEPASISCRSSQSLVHSNRNTYLHWYQQKPGQAPRLLIYKVSNRFSGVPDRFSGSGSGTDFTLKISRVEAEDVGVYYCSQNTHVPPTFGQGTKLEIKSSASTKGPSVFPLAPSSKSTSGGTAALGCLVKDYFPEPVTVSWNSGALTSGVHTFPAVLQSSGLYSLSSVVTVPSSSLGTQTYICNVNHKPSNTKVDKKVEPKSCDKTHTCPPCPAPEAAGGPSVFLFPPKPKDTLMISRTPEVTCVVVDVSHEDPEVKFNWYVDGVEVHNAKTKPREEQYASTYRVVSVLTVLHQDWLNGKEYKCKVSNKALPAPIEKTISKAKGQPREPQVCTLPPSRDELTKNQVSLWCLVKGFYPSDIAVEWESNGQPENNYKTTPPVLDSDGSFFLYSKLTVDKSRWQQGNVFSCSVMHEALHNHYTQKSLSLSPHHHHHHHH
light 1: QVQLVQSGAEVKKPGASVKVSCKASGYTFTDYEMHWIRQPPGQGLEWIGAIDPKTGDTAYSQKFKGRVTLTADKSTSTAYMELSSLTSEDTAVYYCTRFYSYTYWGQGTLVTVSSASVAAPSVFIFPPSDEQLKSGTASVVCLLNNFYPREAKVQWKVDNALQSGNSQESVTEQDSKDSTYSLSSTLTLSKADYEKHKVYACEVTHQGLSSPVTKSFNRGEC
heavy 2: EVQLVETGGSLVQPGKSLKLTCATSGFTFSNAWMHWVRQSPEKQLEWVAQIKAKSNNYATYYAESVKGRFTISRDDSKSNIYLQMNSLKEEDTAVYYCRYVHYGAYYGVDAWGQGTSVTVSSASTKGPSVFPLAPSSKSTSGGTAALGCLVKDYFPEPVTVSWNSGALTSGVHTFPAVLQSSGLYSLSSVVTVPSSSLGTQTYICNVNHKPSNTKVDKKVEPKSCDKTHTCPPCPAPEAAGGPSVFLFPPKPKDTLMISRTPEVTCVVVDVSHEDPEVKFNWYVDGVEVHNAKTKPREEQYASTYRVVSVLTVLHQDWLNGKEYKCKVSNKALPAPIEKTISKAKGQPREPQVYTLPPSRCELTKNQVSLSCAVKGFYPSDIAVEWESNGQPENNYKTTPPVLDSDGSFFLVSKLTVDKSRWQQGNVFSCSVMHEALHNHYTQKSLSLSPDYKDDDDK
light 2: DVVMTQTPVSMSVSLGGQVSISCRSSQSLVHNNGNTYVSWYIQKPSQSPQLLIYKVSNRFSGISDRFSGSGSGTDFTLKISRVEPDDLGVYYCGQGTQDPYTFGAGTKLELKRTVAAPSVFIFPPSDEQLKSGTASVVCLLNNFYPREAKVQWKVDNALQSGNSQESVTEQDSKDSTYSLSSTLTLSKADYEKHKVYACEVTHQGLSSPVTKSFNRGEC
modifications: An artificially generated sequence
cytotoxic activity (T-cell-dependent cellular cytotoxicity) [2]: very strong activity
